Assay [1] concerns the target T1, human DLL4 overexpressed on cells (human, UniProt Q9NR61 27-685).
T1 construct: full length human DLL4 on CHO or HEK293 cells; also called CHO-hDLL4; CHO-hDII4
Briefly: FMAT, labelled hNotch1-Fc on CHO-hDLL4, periplasmic extract. The text has this: All calculations are based on the FL1_total signal which comprises the average of the fluorescence per well times the number of counts per well.

The target of assay [2] is T2, mouse DLL4 expressed on CHO cells (mouse, UniProt Q9JI71 27-686).
T2 construct: whole, on cells; also called mDLL4; CHO-mDLL4
Briefly: competition FMAT, labelled hNotch1-Fc on CHO-mDLL4 cells.

Assay [3] addresses T3, human DLL4 expressed on cells (CHO-hDLL4; HEK293-hDLL4) (human, UniProt Q9NR61 27-685). Briefly: cell-based or functional assay.
For assay [4], the target named is T4, recombinant human DLL4 (C-terminally His-tagged extracellular domain, R&D Systems) (human, UniProt Q9NR61 25-522, biotinylated in the competition ELISA). Briefly: cell-based or functional assay.
For assay [5], the target named is T4, recombinant human DLL4 (C-terminally …). Description: SPR (Biacore), recombinant human DLL4. A general note: Surface plasmon resonance follows binding to a sensor surface in real time, without labels.
The target in assay [6] is T3, human DLL4 expressed on cells …. Briefly: FACS titration on human DLL4 expressing cells, detection anti-c-myc Alexa647 (Example 5.8, Example 7), MCF.

T2 sequence (Q9JI71 27-686): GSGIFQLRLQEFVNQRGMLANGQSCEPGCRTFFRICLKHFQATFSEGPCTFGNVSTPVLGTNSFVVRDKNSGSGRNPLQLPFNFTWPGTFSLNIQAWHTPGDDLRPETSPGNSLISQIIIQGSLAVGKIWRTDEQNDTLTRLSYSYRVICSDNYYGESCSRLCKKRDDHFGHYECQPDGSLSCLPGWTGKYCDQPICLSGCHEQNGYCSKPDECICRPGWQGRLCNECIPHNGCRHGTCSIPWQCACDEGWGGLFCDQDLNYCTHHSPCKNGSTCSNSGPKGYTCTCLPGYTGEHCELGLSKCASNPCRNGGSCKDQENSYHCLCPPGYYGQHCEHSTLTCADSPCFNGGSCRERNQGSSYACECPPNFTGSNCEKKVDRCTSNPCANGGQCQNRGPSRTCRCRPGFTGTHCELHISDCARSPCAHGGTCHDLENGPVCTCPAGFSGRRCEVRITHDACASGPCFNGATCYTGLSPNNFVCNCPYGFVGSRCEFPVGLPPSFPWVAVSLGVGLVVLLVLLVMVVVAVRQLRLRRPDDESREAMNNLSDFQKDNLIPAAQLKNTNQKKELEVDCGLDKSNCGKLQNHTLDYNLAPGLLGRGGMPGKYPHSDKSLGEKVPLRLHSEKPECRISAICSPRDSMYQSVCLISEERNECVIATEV

B1: DLLBII115A05 (VHH)
VHH: EVQLVESGGGLVQPGGSLRLSCAASGFTFGSYDMSWVRRSPGKGPEWVSSINSGGGSTYYADFVKGRFTISRDNAKNTLYLQMNSLKPEDTAVYYCAADRYIRARQGDYWGAYEYDYWGQGTQVTVSS
notes: also called 115A5; DLLBII115A5
On to B1, for which the “% inh” value in assay [1] was found to be 74%.

B2: DLLBII136C07 (VHH, not shown: small tags and cut ends)
VHH: EVQLVESGGGLVQPGGSLRLSCAASGFTFGSYDMSWVRRSPGKGPEWVSSINSGGGSTYYADYVKGRFTISRDNAKNTLYLQMNSLKPEDTAVYYCAADRYIWARQGEYWGAYEYDYWGQGTQVTVSS
B2 yielded an IC50 in assay [2] of 0.0508 µM. Also, the “IC50, DLL4-mediated reporter assay (hDLL4)” value in assay [3] amounted to 0.112 µM. In assay [4], the “IC50, DLL4-mediated HUVEC proliferation assay” value came out at 0.0145 µM and the “Inhibition (%), DLL4-mediated HUVEC proliferation assay” value came to 100%. For the same molecule, in assay [5], the dissociation constant (Kd) was 0.001 µM, the koff is 0.00052 s⁻¹ and the kon stood at 550000 M⁻¹ s⁻¹.

B3: DLLBII101G08 (VHH)
VHH: EVQLVESGGGLVQAGGSLRLSCAASGRTFSSYAMAWFRQAPGKEREFVAAIRWSGGTAYYADSVQGRFTISRDNAKNTVYLQMNSLKPEDTAVYYCANRAADTRLGPYEYDYWGQGTQVTVSS
notes: also called 101G8; DLLBII101G8
For B3, the “% inh” value in assay [1] was found to be 91%.

B4: DLLBII129B05 (VHH, not shown: small tags and cut ends)
VHH: EVQLVESGGGLVQAGGSLRLSCAASGRTFSSYAMAWYRQAPGKEREYVAAIRWSGGTAYYADSVQGRFTISRDNAKNTVYLQMNSLKPEDTAVYYCANRAPDTRLAPYEYDHWGQGTQVTVSS
On to B4, for which, in assay [2], the half-maximal inhibitory concentration (IC50) was 0.0159 µM. Besides, the “IC50, DLL4-mediated reporter assay (hDLL4)” value in assay [3] amounted to 0.108 µM. Moreover, in assay [4], the “IC50, DLL4-mediated HUVEC proliferation assay” value came to 0.0037 µM and the “Inhibition (%), DLL4-mediated HUVEC proliferation assay” value is 100%. Also, in assay [5], the Kd was found to be 0.0002 µM, the off-rate constant (koff) was 7.9e-05 s⁻¹ and the kon is 340000 M⁻¹ s⁻¹.

B5: DLLBII129E11 (VHH, not shown: small tags and cut ends)
VHH: EVQLVESGGGLVQAGGSLRLSCAASGRTFSSYAMAWYRQAPGKEREYVAAIRWSGGTAYYADSVQGRFTISRDNAKNTVYLQMNSLKPEDTAVYYCANRAPDTRLRPYLYDYWGQGTQVTVSS
In the case of B5, the concentration for a half-maximal effect (EC50 (read off the curve)) in assay [6] is about 0.01 µM.

Broadly, the IC50 is the midpoint of a concentration-inhibition curve. What is called Kd is the constant that tells how readily two partners part at equilibrium. For orientation: koff means a measure of how fast the partners let go of each other. As a reminder, the kon is the second-order rate constant of association. One may read the EC50 (read off the curve) as the concentration giving half of the maximal effect.
